B1: RHOBTB3 (parent)
chain: QLQSMPSRELASMNLDIVDLLKKA

Variants of: B1
Assay: protein stability index of a GFP-peptide fusion (GPS, HEK-293T) (PSI 1-6); higher = more stable
Details: c terminus: a fixed tail appended
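Note: lentivirally expressed fusions sorted by FACS into six bins by GFP to DsRed ratio, PSI derived from sequencing read proportions per bin multiplied by bin number.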

Protein stability index of substitutions, site by site:
L20: K 4.33 | S 4.06 | R 3.94 | M 3.75 | D 4.68 | G 4.62 | Q 3.9 | E 4.84 | H 3.63 | I 3.42 | P 4.31 | Y 3.95 | A 3.52 | T 3.96 | F 3.42 | V 2.9 | N 3.71 | W 3.51 | C 3.86
L15: Q 3.72 | G 3.99 | E 3.94 | V 3.35 | K 4.45 | M 3.86 | S 3.79 | F 3.44 | I 3.66 | H 3.98 | C 4.27 | A 3.67 | D 3.23 | W 2.88 | R 3.58 | Y 3.87 | T 4.17 | N 3.45 | P 4.48
V18: T 3.77 | L 3.37 | R 2.73 | D 3.96 | F 2.39 | C 3.69 | H 3.5 | K 3.21 | W 2.61 | A 4.01 | P 3.21 | S 4.08 | N 3.9 | M 3.41 | G 3.65 | I 3.28 | E 4.19 | Q 3.89 | Y 2.6
K22: I 2.32 | Y 2.61 | N 4.23 | W 2.04 | F 2.29 | V 2.15 | Q 3.93 | P 3.57 | R 3.21 | M 2.9 | L 2.07 | A 3.01 | C 2.76 | E 4.71 | S 3.55 | D 4.32 | G 3.75 | H 3.67 | T 3.74
N14: Y 2.68 | Q 3.3 | S 3.31 | T 3.27 | R 2.58 | W 2.37 | V 1.9
L21: K 3.01 | H 4.33 | S 4.12 | G 3.91 | Q 3.87 | A 3.47 | F 3 | D 4.67 | T 3.74 | V 4.12 | Y 2.96 | M 4.02 | I 3.56 | N 3.27 | R 3.93 | C 3.47 | W 3.35 | P 3.84
K23: A 2.92 | N 3.97 | F 2.33 | G 3.16 | E 3.69 | I 2.48 | L 2.58 | M 2.32 | H 3.05 | D 4.03 | C 2.57
D19: W 2.16 | R 2.99 | P 2.83 | H 2.93 | I 1.86 | M 2.09 | G 2.52 | Y 2.28 | V 2.16 | Q 3.58 | C 2.96 | S 3.45 | N 3.15 | T 2.85 | K 3.08 | L 1.48 | F 2.01 | E 3.37 | A 3
D16: N 2.88 | M 2.53 | I 2.67 | R 2.5 | T 3.05 | Y 2.62 | S 3.23 | K 2.91 | F 2.09 | E 3.63 | V 2.22 | A 2.15 | H 2.76 | L 2.63 | C 3.25 | G 3.63 | P 2.75 | Q 3.57
I17: Q 4.55 | P 3.39 | L 3.34 | A 3.63 | C 3.87 | V 3.89 | G 3.46 | N 3.88 | F 3.63 | D 4.23 | Y 3.74 | T 3.58 | H 3.94 | M 3.39 | W 3.45 | S 4.37 | K 3.23 | R 3.4

Reference: the supplement of paper PMC10567573
